Data: patent US20240252614A1 (Pfizer, published 2024)

Key:
[1] = target: F protein of hMPV A virus (human metapneumovirus A); assay: cell-based or functional assay
[2] = target: F protein of hMPV B virus (human metapneumovirus B); assay: cell-based or functional assay
hMPV062 = target: T1, hMPV062 (hMPV A, UniProt Q6WB98 19-102); assay: BLI, no stress
T1 construct: G121A
Method: (§1) The OCTET HTX (Sartorius, Gottingen, Germany) instrument was used to evaluate the expression and conformational integrity for each mutant. All measurements were conducted at 30° C. temperature in 96-well black plates (Corning, Corning, NY) with a final volume of 240 μL per well at a constant agitation rate of 1000 RPM.
(§2) Conformation integrity of hMPV A F protein mutants were evaluated by thermal stress experiments. Crude cell culture supernatants were normalized based on the results of the titer quantitation and then incubated for 1 hour at room temperature and two higher temperatures. […] Anti-Human IgG Fc Capture (AHC) biosensors were first equilibrated in PB before being dipped into more PB to establish the initial baseline. […] The mAb-bound biosensors were then dipped into the thermal stressed cell culture supernatants for 5 minutes. The kinetics analysis was done by OCTET data analysis software (version 12.0, Sartorius) based on curve fitting of the entire associate step.

hMPV060 = target: T2, hMPV060 (hMPV A, UniProt Q6WB98 19-102); assay: BLI, no stress
T2 construct: A459P
Method: as §1, §2

hMPV069 = target: T3, hMPV069 (hMPV A, UniProt Q6WB98 19-102); assay: BLI, no stress
T3 construct: S291I
Method: as §1, §2

hMPV063 = target: T4, hMPV063 (hMPV A, UniProt Q6WB98 19-102); assay: BLI, no stress
T4 construct: G239A
Method: as §1, §2

hMPV061 = target: T5, hMPV061 (hMPV A, UniProt Q6WB98 19-102); assay: BLI, no stress
T5 construct: G106A
Method: as §1, §2

hMPV054 = target: T6, hMPV054 (hMPV A, UniProt Q6WB98 19-102); assay: BLI, no stress
T6 construct: S132P
Method: as §1, §2

hMPV075 = target: T7, hMPV075 (hMPV A, UniProt Q6WB98 19-102); assay: BLI, no stress
T7 construct: L473F
Method: as §1, §2

hMPV055 = target: T8, hMPV055 (hMPV A, UniProt Q6WB98 19-102); assay: BLI, no stress
T8 construct: N145P
Method: as §1, §2

hMPV077 = target: T9, hMPV077 (hMPV A, UniProt Q6WB98 19-102); assay: BLI, no stress
T9 construct: Q476C, S477C
Method: as §1, §2

F protein of hPIV1 virus = F protein of hPIV1 virus (human parainfluenza virus 1); assay: cell-based or functional assay
PIV1053 = target: T10, PIV1053 (PIV1); assay: BLI, 56C stress;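 further: binding of thermally stressed PIV1 F mutant supernatant to mAb on AHC biosensors for 5 min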
T10 construct: F113G, F114S, A466L, S473L, A480L, G134A
Method: as §1
(§3) Conformation integrity of PIV1 F protein mutants were evaluated by a thermal stress experiment. Crude cell culture supernatants were normalized based on the results of the titer quantitation and then incubated for 1 hour at room temperature and two higher temperatures. For the initial testing of PIV1 mutants, the two temperatures were 50° C. and 53° C. […] Anti-Human IgG Fc Capture (AHC) biosensors were first equilibrated in PB for before being dipped into more PB to establish the initial baseline. […] The mAb-bound biosensors were then dipped into the thermal stresses cell culture supernatants for 5 minutes.

PIV1059 = target: T11, PIV1059 (PIV1); assay: BLI, 56C stress;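 further: binding of thermally stressed PIV1 F mutant supernatant to mAb on AHC biosensors for 5 min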
T11 construct: F113G, F114S, A466L, S473L, A480L, G134A, Q92L
Method: as §1, §3

PIV1049 = target: T12, PIV1049 (PIV1); assay: BLI, 56C stress;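 further: binding of thermally stressed PIV1 F mutant supernatant to mAb on AHC biosensors for 5 min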
T12 construct: Q92C-G134C, A466L, S473L
Method: as §1, §3

PIV1047 = target: T13, PIV1047 (PIV1); assay: BLI, 56C stress;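 further: binding of thermally stressed PIV1 F mutant supernatant to mAb on AHC biosensors for 5 min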
T13 construct: F113G, F114S, Q92C-G134C, A466L, S473L, A480L
Method: as §1, §3

[3] = target: T14, PIV1 F literature prefusion comparison (PIV1); assay: BLI, 56C stress
T14 construct: F113G, F114S, A466I, S473I (Stewart-Jones et al. 2018)
Method: as §1, §3

PIV1056 = target: T15, PIV1056 (PIV1); assay: BLI, 56C stress
T15 construct: F113G, F114S, A466L, S473L, A480L, Q92A, G134A
Method: as §1, §3

PIV1065 = target: T16, PIV1065 (PIV1); assay: BLI, 56C stress
T16 construct: F113G, F114S, Q92C-G134C, A466I, S473I
Method: as §1, §3

PIV1067 = target: T17, PIV1067 (PIV1); assay: BLI, 56C stress
T17 construct: F113G, F114S, Q92C-G134C, A466I, S473I, A480I
Method: as §1, §3

PIV1064 = target: T18, PIV1064 (PIV1); assay: BLI, 56C stress
T18 construct: F113G, F114S, Q92C-G134C, A466I, S473I, A480L
Method: as §1, §3

PIV1045 [4] = target: T19, PIV1045 (PIV1); assay: BLI, no stress
T19 construct: Q92L, G134A
Method: (§4) All measurements were conducted at 30° C. temperature in 96-well black plates (Corning, Corning, NY) with a final volume of 240 μL per well at a constant agitation rate of 1000 RPM.
as §3

PIV1046 [5] = target: T20, PIV1046 (PIV1); assay: BLI, no stress
T20 construct: A466V, S473V
Method: as §4, §3

PIV1044 [6] = target: T21, PIV1044 (PIV1); assay: BLI, no stress
T21 construct: Q92L
Method: as §4, §3

PIV1042 [7] = target: T22, PIV1042 (PIV1); assay: BLI, no stress
T22 construct: Q92A
Method: as §4, §3

PIV1043 [8] = target: T23, PIV1043 (PIV1); assay: BLI, no stress
T23 construct: Q92A, G134A
Method: as §4, §3

PIV1045 [9] = target: T19, PIV1045; assay: BLI, 56C stress
Method: as §4, §3

PIV1046 [10] = target: T20, PIV1046; assay: BLI, 56C stress
Method: as §4, §3

PIV1044 [11] = target: T21, PIV1044; assay: BLI, 56C stress
Method: as §4, §3

PIV1042 [12] = target: T22, PIV1042; assay: BLI, 56C stress
Method: as §4, §3

PIV1043 [13] = target: T23, PIV1043; assay: BLI, 56C stress
Method: as §4, §3

PIV1039 = target: T24, PIV1039 (PIV1); assay: BLI, no stress
T24 construct: A128P
Method: as §4, §3

PIV1023 = target: T25, PIV1023 (PIV1); assay: BLI, no stress
T25 construct: A466L
Method: as §4, §3

PIV1028 = target: T26, PIV1028 (PIV1); assay: BLI, no stress
T26 construct: A480L
Method: as §4, §3

PIV1036 = target: T27, PIV1036 (PIV1); assay: BLI, no stress
T27 construct: G134A
Method: as §4, §3

PIV1024 = target: T28, PIV1024 (PIV1); assay: BLI, no stress
T28 construct: A466V
Method: as §4, §3

PIV1014 = target: T29, PIV1014 (PIV1); assay: BLI, no stress
T29 construct: Q92C-G134C
Method: as §4, §3

PIV1027 = target: T30, PIV1027 (PIV1); assay: BLI, no stress
T30 construct: S473L
Method: as §4, §3

PIV1026 = target: T31, PIV1026 (PIV1); assay: BLI, no stress
T31 construct: S473V
Method: as §4, §3

PIV1033 = target: T32, PIV1033 (PIV1); assay: BLI, no stress
T32 construct: T198A
Method: as §4, §3

PIV1030 = target: T33, PIV1030 (PIV1); assay: BLI, no stress
T33 construct: A466L, S473A
Method: as §4, §3

PIV1031 = target: T34, PIV1031 (PIV1); assay: BLI, no stress
T34 construct: A466L, S473L
Method: as §4, §3

B1: hMPV-2 mAb (antibody, V domains shown)
VH: QVQLQQSGAEVKKPGASVKVSCKASGYTFTSYGISWVRQAPGQGLEWMGWISGYNGNTNYAQTFQGTFTMTTDTSTSTAYMELRRLRSGDTAVYYCARDRYYASGSYNGMDVWGQGTTVTVSS
VL: QSALTQPPSASGAPGQRVTVSCSGSSSNVGSSSVYWYQQLPGTAPKLLIYRNNQRPSGVPDRFSGSKSGTSASLAISGLRSEDEADYYCAAWDDSLSGWVFGGGTKLTVLG
notes: human IgG1
IC50, virus neutralization assay [1]: 20 µg/mL
IC50, virus neutralization assay [2]: 23.2 µg/mL
Response Shift (hMPV062): 0.774 nm
Response Shift (hMPV060): 0.769 nm
Response Shift (hMPV069): 0.747 nm
Response Shift (hMPV063): 0.854 nm
Response Shift (hMPV061): 0.73 nm
Response Shift (hMPV054): 0.682 nm
Response Shift (hMPV075): 0.802 nm
Response Shift (hMPV055): 0.627 nm
Response Shift (hMPV077): 0.751 nm

B2: PIV1-8 mAb (antibody, V domains shown)
VH: QVQLVQSGAEVKKPGSSVKVSCEASGGTFSNYVISWVRQAPGQGLEWMGGIIPVFATAKYAQKFQGRVTIIADQSTNTAYLELSSLRSDDTAVYFCASVDSGGTWWDAFAIWGQGTMVTVSS
VL: QAVVTQPRSVSGSPGQAVTISCTGTSSDVGGYNYVSWYQHHPGKAPKLIIYDVTKRPSGVPDRFSGSKSGNTASLTISGLQTEYEADYYCCSYAGSYTLVFGGGTKLTVLG
notes: human IgG1; also called hPIV1-8 mAb; hPIV1-8
IC50, virus neutralization assay (F protein of hPIV1 virus): 0.005 µg/mL
Response Shift (PIV1053): 0.776 nm
Response Shift (PIV1059): 0.784 nm
Response Shift (PIV1049): 0.294 nm
Response Shift (PIV1047): 0.754 nm
Response Shift [3]: 0.119 nm
Response Shift (PIV1056): 0.751 nm
Response Shift (PIV1065): 0.677 nm
Response Shift (PIV1067): 0.728 nm
Response Shift (PIV1064): 0.702 nm
Response Shift (PIV1045 [4]): 0.635 nm
Response Shift (PIV1046 [5]): 0.584 nm
Response Shift (PIV1044 [6]): 0.162 nm
Response Shift (PIV1042 [7]): 0.192 nm
Response Shift (PIV1043 [8]): 0.725 nm
Response Shift (PIV1045 [9]): -0.095 nm
Response Shift (PIV1046 [10]): -0.091 nm
Response Shift (PIV1044 [11]): -0.122 nm
Response Shift (PIV1042 [12]): -0.103 nm
Response Shift (PIV1043 [13]): -0.102 nm
Response Shift (PIV1039): -0.068 nm
Response Shift (PIV1023): 0.831 nm
Response Shift (PIV1028): 0.579 nm
Response Shift (PIV1036): 0.753 nm
Response Shift (PIV1024): 0.745 nm
Response Shift (PIV1014): 0.857 nm
Response Shift (PIV1027): 0.748 nm
Response Shift (PIV1026): 0.606 nm
Response Shift (PIV1033): -0.056 nm
Response Shift (PIV1030): 0.753 nm
Response Shift (PIV1031): 0.766 nm
